Experimental data taken from patent US20090317358A1.

Molecular target: human high affinity receptor for IL2 (IL2R) (human) (UniProt P01589)
Assay: cell-based or functional assay

Sequence of UniProt P01589 (P01589 22-272, chain 1 of 3): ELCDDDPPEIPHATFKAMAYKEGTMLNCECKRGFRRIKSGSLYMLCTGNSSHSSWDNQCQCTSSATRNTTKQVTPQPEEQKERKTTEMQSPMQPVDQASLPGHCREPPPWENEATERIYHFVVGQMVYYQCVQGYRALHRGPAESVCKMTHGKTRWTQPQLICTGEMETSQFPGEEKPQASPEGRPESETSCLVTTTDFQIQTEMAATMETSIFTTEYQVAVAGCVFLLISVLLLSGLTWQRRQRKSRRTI
Sequence of UniProt P01589 (P14784 27-551, chain 2 of 3, further chain): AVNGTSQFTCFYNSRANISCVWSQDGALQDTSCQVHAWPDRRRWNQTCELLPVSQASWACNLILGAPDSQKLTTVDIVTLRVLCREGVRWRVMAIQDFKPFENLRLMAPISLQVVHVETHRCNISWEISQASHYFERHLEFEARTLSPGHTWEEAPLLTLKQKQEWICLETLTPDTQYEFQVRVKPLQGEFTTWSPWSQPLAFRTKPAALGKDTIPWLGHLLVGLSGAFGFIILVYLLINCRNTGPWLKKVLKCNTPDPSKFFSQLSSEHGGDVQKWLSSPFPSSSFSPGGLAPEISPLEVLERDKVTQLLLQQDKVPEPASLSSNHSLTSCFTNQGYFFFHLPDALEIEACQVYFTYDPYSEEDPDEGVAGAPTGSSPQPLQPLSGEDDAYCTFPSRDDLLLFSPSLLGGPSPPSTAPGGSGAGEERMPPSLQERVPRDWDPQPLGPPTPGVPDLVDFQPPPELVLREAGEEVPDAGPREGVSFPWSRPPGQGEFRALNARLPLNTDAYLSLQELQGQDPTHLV
Sequence of UniProt P01589 (P31785 23-369, chain 3 of 3, further chain): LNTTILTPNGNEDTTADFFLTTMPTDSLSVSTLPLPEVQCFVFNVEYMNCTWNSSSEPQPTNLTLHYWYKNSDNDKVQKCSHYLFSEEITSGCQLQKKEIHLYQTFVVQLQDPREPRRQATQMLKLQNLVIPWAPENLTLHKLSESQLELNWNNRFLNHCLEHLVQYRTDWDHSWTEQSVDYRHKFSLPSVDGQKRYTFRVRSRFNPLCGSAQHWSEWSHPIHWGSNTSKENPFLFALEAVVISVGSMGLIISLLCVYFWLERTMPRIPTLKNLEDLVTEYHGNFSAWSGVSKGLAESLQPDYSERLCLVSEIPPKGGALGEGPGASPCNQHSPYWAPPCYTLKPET

IL2-Bax chimeric protein
M1, fresh lymphocytes analyzed by FACS, IL2-Bax 1 µg (Experiment No. 1): 17.5 | M1, fresh lymphocytes analyzed by FACS, IL2-Bax 5 µg (Experiment No. 1): 24.3 | M1, fresh lymphocytes analyzed by FACS, IL2-Bax 10 µg (Experiment No. 1): 42.1 | M1 - 2, fresh lymphocytes analyzed by FACS, IL2-Bax 1 µg (Experiment No. 1): 13.5 | M1 - 2, fresh lymphocytes analyzed by FACS, IL2-Bax 5 µg (Experiment No. 1): 20 | M1 - 2, fresh lymphocytes analyzed by FACS, IL2-Bax 10 µg (Experiment No. 1): 35 | M2, fresh lymphocytes analyzed by FACS, IL2-Bax 1 µg (Experiment No. 1): 4 | M2, fresh lymphocytes analyzed by FACS, IL2-Bax 5 µg (Experiment No. 1): 4.3 | M2, fresh lymphocytes analyzed by FACS, IL2-Bax 10 µg (Experiment No. 1): 9.1 | UL + UR, fresh lymphocytes analyzed by FACS, IL2-Bax 1 µg (Experiment No. 2): 10.5 | UL + UR, fresh lymphocytes analyzed by FACS, IL2-Bax 10 µg (Experiment No. 2): 31.6 | UL, fresh lymphocytes analyzed by FACS, IL2-Bax 1 µg (Experiment No. 2): 4.98 | UL, fresh lymphocytes analyzed by FACS, IL2-Bax 10 µg (Experiment No. 2): 14.7 | UR, fresh lymphocytes analyzed by FACS, IL2-Bax 1 µg (Experiment No. 2): 5.56 | UR, fresh lymphocytes analyzed by FACS, IL2-Bax 10 µg (Experiment No. 2): 16.8 | apoptotic cells in fresh human lymphocytes treated with IL2-Bax (FACS): 2 to 14% | increase in the percentage of the apoptotic-cell population (sub-G1, FACS), HUT102 cells, highest concentration tested: 3.6 fold
